Literature values in PMC10817355.

Molecular target: BTLA (Homo sapiens) (UniProt Q7Z6A9)
UniProt Q7Z6A9, sequence (Q7Z6A9 31-157): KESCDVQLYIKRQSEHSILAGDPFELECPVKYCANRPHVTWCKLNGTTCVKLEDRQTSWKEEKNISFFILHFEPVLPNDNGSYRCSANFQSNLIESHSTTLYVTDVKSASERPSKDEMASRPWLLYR

Kd: 0.102 µM
Substance: HVEM(14-39) 14-39 (from UniProt Q92956)
